In patent US20050220762A1:

Tests used:
[1] = target: T1, full length rat GHR (L43R) on BAF3 cells (rat) (UniProt P16310); experiment: cell-based or functional assay
T1 sequence (looked up): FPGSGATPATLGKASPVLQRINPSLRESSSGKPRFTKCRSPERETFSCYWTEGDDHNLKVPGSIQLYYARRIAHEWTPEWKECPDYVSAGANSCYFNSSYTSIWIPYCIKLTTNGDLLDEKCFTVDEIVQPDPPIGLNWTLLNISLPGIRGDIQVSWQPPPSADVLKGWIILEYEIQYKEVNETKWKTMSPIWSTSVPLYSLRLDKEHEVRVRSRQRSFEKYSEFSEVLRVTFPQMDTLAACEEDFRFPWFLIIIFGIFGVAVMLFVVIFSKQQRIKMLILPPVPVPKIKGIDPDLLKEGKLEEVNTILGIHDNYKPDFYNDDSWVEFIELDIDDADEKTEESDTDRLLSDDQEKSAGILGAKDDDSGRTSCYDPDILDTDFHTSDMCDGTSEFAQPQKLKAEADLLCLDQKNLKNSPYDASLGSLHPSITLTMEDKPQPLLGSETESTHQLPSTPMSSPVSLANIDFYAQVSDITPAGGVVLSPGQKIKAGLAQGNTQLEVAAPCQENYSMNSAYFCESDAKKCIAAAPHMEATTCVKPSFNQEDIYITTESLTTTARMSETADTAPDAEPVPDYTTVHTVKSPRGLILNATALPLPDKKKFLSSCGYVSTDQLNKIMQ

[2] = target: human growth hormone receptor on IM-9 cells (human) (UniProt P10912); experiment: cell-based or functional assay
UniProt P10912, sequence (P10912 19-638): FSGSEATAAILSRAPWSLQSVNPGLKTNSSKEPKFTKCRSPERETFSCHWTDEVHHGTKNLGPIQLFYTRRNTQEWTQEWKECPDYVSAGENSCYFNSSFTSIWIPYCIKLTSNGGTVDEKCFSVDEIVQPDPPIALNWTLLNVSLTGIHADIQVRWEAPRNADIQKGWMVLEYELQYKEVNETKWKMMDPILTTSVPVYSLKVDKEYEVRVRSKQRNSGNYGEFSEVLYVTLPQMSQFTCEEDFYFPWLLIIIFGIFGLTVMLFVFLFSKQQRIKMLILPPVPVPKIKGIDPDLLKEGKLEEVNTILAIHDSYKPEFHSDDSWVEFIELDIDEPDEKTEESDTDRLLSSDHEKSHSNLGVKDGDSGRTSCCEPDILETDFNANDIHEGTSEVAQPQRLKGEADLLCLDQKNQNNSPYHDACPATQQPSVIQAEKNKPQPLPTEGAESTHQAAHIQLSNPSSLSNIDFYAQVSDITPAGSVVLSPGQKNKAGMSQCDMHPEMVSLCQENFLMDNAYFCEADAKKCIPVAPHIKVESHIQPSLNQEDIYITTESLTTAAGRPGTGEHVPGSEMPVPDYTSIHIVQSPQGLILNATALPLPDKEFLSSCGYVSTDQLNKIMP

Proliferation EC50 (nM), BrdU, rat GHR (L43R) BAF3 cells; WHO hGH expressed as unity [1]	pSTAT5 EC50 (nM), IM-9; WHO hGH expressed as unity [2]	Substance
5.3 nM	20.6 nM	hGH K145pAF linked to 30 kDa PEG (from UniProt P01241 27-217) (ligand)
6.6 nM	12.3 nM	hGH Y143pAF linked to 30 kDa PEG (from UniProt P01241 27-217) (ligand)

Continued, substance first:

Substance	Proliferation EC50 (nM), BrdU, rat GHR (L43R) BAF3 cells; WHO hGH expressed as unity [1]	pSTAT5 EC50 (nM), IM-9; WHO hGH expressed as unity [2]
hGH G131pAF linked to 30 kDa PEG (from UniProt P01241 27-217) (ligand)	4.6 nM	23.8 nM
hGH R134pAF linked to 20 kDa PEG (from UniProt P01241 27-217) (ligand)	–	5.3 nM
hGH Y35pAF linked to 40 kDa PEG (from UniProt P01241 27-217) (ligand)	24 nM	53.3 nM
